Data from article doi:10.1101/225821 (bioRxiv, 2017).

Legend:
[1] = target: Fc-tagged SALM3 LRR-Ig-Fn (mouse) (UniProt Q80XU8); assay: SPR
SEC-MALS = target: the molecule itself; assay: SEC-MALS
[2] = target: RPTPσ Ig1-3meB_(33-331) (mouse) (UniProt B0V2N1); assay: SEC-MALS

fold lower affinity than for RPTPσ-meB [1] [fold] | stoichiometry N (SALM3 per RPTPσ (2:1)) [2] | Molecule | stoichiometry N (SEC-MALS)
10 |  | PTPσ Ig1-3_(33-327) (from UniProt B0V2N1 33-327) (domain or fragment) | 
 | 2 | SALM3 LRR-Ig_(17-367) (domain or fragment, mouse, UniProt Q80XU8 17-367, looked up) CPLPCVCQNLSESLSTLCAHRGLLFVPPNVDRRTVELRLADNFIQALGPPDFRNMTGLVDLTLSRNAITRIGARSFGDLESLRSLHLDGNRLVELGSSSLRGPVNLQHLILSGNQLGRIAPGAFDDFLDSLEDLDVSYNNLRQVPWAGIGSMPALHTLNLDHNLIDALPPGVFAQLSQLSRLDLTSNRLATLAPDPLFSRGRDAEASPSPLVLSFSGNPLHCNCELLWLRRLARPDDLETCASPPTLAGRYFWAVPEGEFSCEPPLIARHTQRLWVLEGQRATLRCRALGDPVPTMHWVGPDDRLVGNSSRAWAFPNGTLEIGVTGAGDAGAYTCIATNPAGEATARVELR | 2
 |  | SALM5 LRR-Ig_(18-376) (domain or fragment, mouse, UniProt Q8BXA0 18-376, looked up) QICPKRCVCQILSPNLATLCAKKGLLFVPPNIDRRTVELRLADNFVTNIKRKDFANMTSLVDLTLSRNTISFITPHAFADLRNLRALHLNSNRLTKITNDMFSGLSNLHHLILNNNQLTLISSTAFDDVFALEELDLSYNNLETIPWDAVEKMVSLHTLSLDHNMIDNIPKGTFSHLHKMTRLDVTSNKLQKLPPDPLFQRAQVLATSGIISPSTFALSFGGNPLHCNCELLWLRRLSREDDLETCASPALLTGRYFWSIPEEEFLCEPPLITRHTHEMRVLEGQRATLRCKARGDPEPAIHWISPEGKLISNATRSLVYDNGTLDILITTVKDTGAFTCIASNPAGEATQTVDLHIIK | 2
 |  | SALM1 LRR-Ig-Fn_(20-518) (domain or fragment, mouse, UniProt Q80TG9 20-518, looked up) ACPKYCVCQNLSESLGTLCPSKGLLFVPPDIDRRTVELRLGGNFIIHIGRQDFANMTGLVDLTLSRNTISHIQPFSFLDLESLRSLHLDSNRLPSLGEDTLRGLVNLQHLIVNNNQLGGIADDAFEDFLLTLEDLDLSYNNLHGLPWDSVRRMVNLHQLSLDHNLLDHIAEGTFADLQKLARLDLTSNRLQKLPPDPIFARSQASLLTATPFAPPLSFSFGGNPLHCNCELLWLRRLERDDDLETCGSPGSLKGRYFWHIREEEFVCEPPLITQHTHKLLVLEGQAATLKCKAIGDPSPLIHWVAPDDRLVGNSSRTAVYDNGTLDILITTSQDSGPFTCIAANAAGEATATVEVSIVQLPHLSNSTSRMAPPKSRLSDITGSSKTSRGGGGSGAGEPPKSTPERAVLVSDVTTTSALVKWSVSKSAPRVKMYQLQYNCSDDEVLIYRMIPASNKAFVVNNLVSGTGYDLCVLAMWDDTATTLTATNIVGCAQFFTKAD | 2
 |  | SALM3 LRR-Ig-Fn_(17-510) (domain or fragment, mouse, UniProt Q80XU8 17-510, looked up) CPLPCVCQNLSESLSTLCAHRGLLFVPPNVDRRTVELRLADNFIQALGPPDFRNMTGLVDLTLSRNAITRIGARSFGDLESLRSLHLDGNRLVELGSSSLRGPVNLQHLILSGNQLGRIAPGAFDDFLDSLEDLDVSYNNLRQVPWAGIGSMPALHTLNLDHNLIDALPPGVFAQLSQLSRLDLTSNRLATLAPDPLFSRGRDAEASPSPLVLSFSGNPLHCNCELLWLRRLARPDDLETCASPPTLAGRYFWAVPEGEFSCEPPLIARHTQRLWVLEGQRATLRCRALGDPVPTMHWVGPDDRLVGNSSRAWAFPNGTLEIGVTGAGDAGAYTCIATNPAGEATARVELRVLALPHGGNTSAEGGRPGPSDIAASARTAAEGEGTLESEPAVQVTEVTATSGLVSWGLGRPADPVWMFQIQYNSSEDETLIYRIVPASSHHFLLKHLVPGADYDLCLLALSPAAGPSDLTATRLLGCAHFSTLPATPLCHALQ | 2
